Assay results reported in patent US20200010507A1.
Where no end group is shown, it is not given here. [ ]: non-standard residue; d: D form. NMeE = CN[C@@H](CCC(=O)O)C(=O)O

Molecular target: ex vivo seeds extracted from the hearts of eight ATTR patients
Assay: cell-based or functional assay

peptide concentration giving full inhibition of amyloid seeding (tested as the cocktail TabFH2): 360 µM
Binder: RRRRHVAHPFV[NMeE]FTE [TabF2]
